This data set relates to 41-mer peptide substrate (41-PS), QTVTWPDMELPLPRNITEGE-ARGSVILTVKPIFEVSPSPL-(BIOTINYL)K.

In the case of “aggrecan degrading metallo protease (ADMP)”, the “cleavage of 41-PS to the 21-mer product, HPLC assay” value was “Effect of incubation time was evaluated and found to be linear over the timecourse of the assay”.

The values above are taken from patent publication US7223834.
